In patent publication US20090104205A1 (AstraZeneca / MedImmune, published 2009):

B1: humanized 1129 (CDR-grafted anti-RSV F antibody, human IgG1/kappa) (antibody, V domains shown)
VH: QVTLRESGPALVKPTQTLTLTCTFSGFSLSTSGMSVGWIRQPPGKALEWLADIWWDDKKDYNPSLKSRLTISKDTSKNQVVLKVTNMDPADTATYYCARSMITNWYFDVWGAGTTVTVSS
VL: DIQMTQSPSTLSASVGDRVTITCKCQLSVGYMHWYQQKPGKAPKLWIYDTSKLASGVPSRFSGSGSGTEFTLTISSLQPDDFATYYCFQGSGYPFTFGGGTKLEIK
notes: also called H1129; Hu1129
B2: murine monoclonal antibody MAb 1129 (antibody, V domains shown)
VH: QVELQESGPGILQPSQTLSLTCSFSGFSLSTSGMSVGWIRQPSGEGLEWLADIWWDDKKDYNPSLKSRKTISKDTSSNQVFLKITGVDTADTATYYCARSMITNWYFDVWGAGTTVTVSS
VL: DIQLTQSPAIMSASPGEKVTMTCSASSSVGYMHWYQQKSSTSPKLWIYDTSKLASGVPGRFSGSGSGNSYSLTISSIQAEDVATYYCFQGSGYPFTFGGGTKLEIK
notes: also called M1129
B3: murine monoclonal antibody MAb 1308F (antibody, V domains shown)
VH: EVQKQQSGAELVRPGALVKLSCKASGFNIKDYYIYWVKQRPEQGLEWIGWIDPENGNTVFDPLFQGKASITSDTSSNTAYLQLSSLTSEDTAVYYCAYYGTSSFDFWGQGTTLTVSS
VL: DIKMTQSPSSMYVSLGERVTITCKASQDINRYLNWFQQKPGKSPKTLIHRANRLVDGVPSRFSGSGSGQEYSLTISSLEFEDMGIYYCLQFHEFPYTFGGGTKLEIL
notes: also called M1308F; Mu1308F
B4: humanized 1308F (CDR-grafted anti-RSV F antibody, human IgG1/kappa) (antibody, V domains shown)
VH: QVQLVQSGAEVKKPGASVKVSCKASGFNIKDYYIYWVRQAPGQGLEWIGWIDPENGNTVFDPKFNGRVTMTRDTSTSTVYMELSSLRSEDTAVYYCAYYGTSSFDFWGQGTTLTVSS
VL: DIQMTQSPSTLSASVGDRVTITCKASQDINRYLNWYQQKPGKAPKLLIYRANRLVDGVPSRFSGSGSGTEFTLTISSLQPDDFATYYCLQFHEFPYTFGGGTKLEIL
notes: also called H1308F; Hu1308F

target: T1, C-terminal truncated RSV F protein (secreted, from recombinant baculovirus) (respiratory syncytial virus, UniProt P03420 26-524); assay: SPR (BIAcore), F protein amine-coupled, Kd = kd/ka
T1 construct: also called immobilized F protein
T1 sequence (P03420 26-524): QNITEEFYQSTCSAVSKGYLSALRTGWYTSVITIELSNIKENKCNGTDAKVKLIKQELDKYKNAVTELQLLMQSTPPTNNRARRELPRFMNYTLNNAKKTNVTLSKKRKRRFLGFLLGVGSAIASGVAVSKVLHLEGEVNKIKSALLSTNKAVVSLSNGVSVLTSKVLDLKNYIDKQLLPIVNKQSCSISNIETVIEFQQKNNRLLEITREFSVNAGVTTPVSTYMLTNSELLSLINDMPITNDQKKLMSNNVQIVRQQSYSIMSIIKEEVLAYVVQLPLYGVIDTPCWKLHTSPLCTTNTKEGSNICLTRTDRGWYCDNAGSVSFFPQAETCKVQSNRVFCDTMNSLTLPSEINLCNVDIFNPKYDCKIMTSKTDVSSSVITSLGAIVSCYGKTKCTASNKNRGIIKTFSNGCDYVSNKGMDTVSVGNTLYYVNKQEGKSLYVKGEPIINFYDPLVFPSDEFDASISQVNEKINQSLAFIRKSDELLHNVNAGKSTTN

Binder | Kd [nM]
B1 | 1.4
B2 | 11.4
B3 | 1.1
B4 | 2.5

target: T2, RSV F protein (native, from RSV virus or RSV infected HEP2 cell lysate) (respiratory syncytial virus, UniProt P03420 26-574); assay: capture ELISA: RSV infected HEP2 cell lysate captured on Mu1331 antibody; double reciprocal plot of OD vs antibody concentration
T2 construct: In the ELISA the antigen was whatever the Mu1331 anti-F antibody captured from the infected cell lysate; also called RSV F antigen; RSV F glycoprotein
T2 sequence (P03420 26-574): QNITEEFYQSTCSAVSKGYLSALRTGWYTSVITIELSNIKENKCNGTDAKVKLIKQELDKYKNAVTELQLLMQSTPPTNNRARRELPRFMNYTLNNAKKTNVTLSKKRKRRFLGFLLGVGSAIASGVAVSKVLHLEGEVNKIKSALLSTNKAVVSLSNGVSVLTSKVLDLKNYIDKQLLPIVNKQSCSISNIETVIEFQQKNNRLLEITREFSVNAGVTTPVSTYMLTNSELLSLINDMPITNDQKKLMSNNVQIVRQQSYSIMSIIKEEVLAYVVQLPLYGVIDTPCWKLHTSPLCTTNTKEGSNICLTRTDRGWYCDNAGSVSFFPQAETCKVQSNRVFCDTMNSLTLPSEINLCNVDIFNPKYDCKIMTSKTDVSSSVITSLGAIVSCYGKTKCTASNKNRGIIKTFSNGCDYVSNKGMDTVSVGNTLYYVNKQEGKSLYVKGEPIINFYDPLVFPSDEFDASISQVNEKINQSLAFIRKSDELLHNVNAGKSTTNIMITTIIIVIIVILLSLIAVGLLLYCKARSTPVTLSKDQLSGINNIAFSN

Binder | Kd [nM]
B1 | 0.7

target: T1, C-terminal truncated RSV F protein …; assay: SPR (BIAcore), F protein amine-coupled, Mab injected at 25-300 nM

Binder | koff [s⁻¹] | kon [M⁻¹ s⁻¹] | t1/2 (dissociation half-life) [h]
B1 | 6.9e-05 | 49000 | 2.8
B2 | 0.0004 | 35000 | 0.48
B3 | 3.8e-05 | 35000 | 5.1
B4 | 5.5e-05 | 22000 | 3.5
